Assay: soluble on expression in E. coli; label from the status in PepcDB or PDB records

| Sequence | soluble on expression in E. coli |
| --- | --- |
| MSSSAPKYTTFQGSQNFRLRIVLATLSGKPIKIEKIRSGDLNPGLKDYEVSFLRLIESVTNGSVIEISYTGTTVIYRPGIIVGGASTHICPSSKPVGYFVEPMLYLAPFSKKKFSILFKGITASHNDAGIEAIKWGLMPVMEKFGVRECALHTLKRGSPPLGGGEVHLVVDSLIAQPITMHEIDRPIISSITGVAYSTRVSPSLVNRMIDGAKKVLKNLQCEVNITADVWRGENSGKSPGWGITLVAQSKQKGWSYFAEDIGDAGSIPEELGEKVACQLLEEISKSAAVGRNQLPLAIVYMVIGKEDIGRLRINKEQIDERFIILLRDIKKIFNTEVFLKPVDEADNEDMIATIKGIGFTNTSKKIA | not soluble |
| MPSMLERISKNLVKEIGSKDLTPVKYLLSATKLRQFVILRKKKDSRSSFWEQSDYVPVEFSLNDILEPSSSVLETVVTGPFHFSDIMIQKHKADMGVNVGIEVSVSGEASVDHGCSLEFQIVTIPSPNLEDFQKRKLLDPEPSFLKECRRRGDNLYVVTEAVELINNTVLYDSSSVNILGKIALWITYGKGQGQGESLRVKKKALTLQKGMVMAYKRKQLVIKEKAILISDDDEQRTFQDEYEISEMVGYCAARSEGLLPSFHTISPTLFNASSNDMKLKPELFLTQQFLSGHLPKYEQVHILPVGRIEEPFWQNFKHLQEEVFQKIKTLAQLSKDVQDVMFYSILAMLRDRGALQDLMNMLELDSSGHLDGPGGAILKKLQQDSNHAWFNPKDPILYLLEAIMVLSDFQHDLLACSMEKRILLQQQELVRSILEPNFRYPWSIPFTLKPELLAPLQSEGLAITYGLLEECGLRTELDNPRSTWDVEAKMPLSALYGTLSLLQQLAEA | soluble |
| MPQNQSDRLKPKGSGDGPLGTALGRGAGVASDLWRRIRTRALSAIGPEAEAQLYEVHKEWLGDLSGKKVLEIGGGSPLSPWLADTARTYHAVSADPAELEALKVRLGEGRTARLIEADPMSGAFRETGYDVIYLHSVLHRMADRGPFLDRLLKKLAIEGRVVTTDPADGGALTRLVRTIDRPFRAESLPDHPVTEELKAELAERFYLINCVAPFRLGKAALVLGALHPELGRRVSERLIAADLKDRAAFNRLNASLQVSFLLGAPD | not soluble |
| MFPLNDLSLKTQPVQLNKVTSNTESTIKQHELVSDDAIINELSSELVSCLGNGKFTPISEDSKLFNMLSEFKLLHSEYFEWGDYSLWFQDFSIYNKIGFIMIEKIRELVTHPFGINLEHHHHHH | not soluble |
| MGSDKIHHHHHHMGNCQILSSGDKIKLIRKKYGLRQDDIVGEEVTRNLISQIEHNKAKLTKSTAEIIIKNLKEIAKKNNLEMDVTADYLLEDELAQANSILENYVDELKNLLVYKCSRFYESLKSAEEFLIQWDIKEKKVQIYELAGDYFYIQNDLAKSVLYYEKAFDILDKTSYNKSLLSILRKLSLMYLNSLKYDRSIECCNFALNHFKNMPDDYISIFLFNTALCYYYMHYYEKALEVIDNLEPLIKDNTSKLIDVLNNKACCLSDLNRIDEAAEIYLRIFNLLNTNNIKSSQYLLILSNLIDTFAKKDVKDEVIKYLNLLLDRFPTSSQDDSYLSVACFNAAKAFIYLGDLQKAEEYLLKALTLSKNHNKYSLQEKTLSLLTDLYIQLNDFEKLEEINLEAVVLSNSQQKVCTNIFYKLLKFLNQNNKTEDIDKILNFLIKFK | not soluble |
| MPSYTLTQLASAVRNCLESGFPGRYWVSAETSGVRVGISGHCYLELLDKDTSGSQVTARMKAMIWASDYATLSGRFQRETGETFDSGLHVLVLVSVSYHEQYGLSLRILDIDPSYTMGAMARKRKEIIEELRRQGLYDLNRSLSLPRPTQRIAIVSSGAAAGFEDFIAHLSHSAEHFCFYPVLFQAVMQGAQTEASVLGALERIAYHRDSFDVVVIIRGGGAVSELAAFDSLAIGQACARFPLPILTGIGHDRDETVVDLVAYRSLKTPTAVADFLVNCQREEWKLIDDLRSRAAEGLRMMMMYCHERLIQLSLRTPAILKSSVREEHHRIKSVEDRIRLAAKQRIAFGLQQLQIASRSLPALMKSELKQNTGQLDQVAARLPLLVTANLKNYNRRLETNEQAIRLLHPNATLRRGFAIVLKDDKAIRSHSELHKGDHLVAQFADGSVSAVVDQPQKGKH | not soluble |
| MTKKELRAQIRQRNREMLAAENRERWSQSIIERIRRLDIFADAKRIGLYHALPDEPDLTGLLREYVQTKQLFIPRVEGDDIAFYAYTGEADLEAEGAYGIAEPTADAATAILPSSLDLLLVPGVAFDRKGSRMGRGKGYYDRFLPATQVRLIGVTFSYRLLEELPTDPWDRPMDGVITESETLFCLEHHHHHH | soluble |
| MDDDILGLEDVTASEAFKIIYELSKASKIDADRSDAAKAQFTLLHSTLLQALQAERDLLDQAKALKRQKEEQEAAITGAGGVPGADDIDQLREDVEAALGEAALAQERQQLLQLEVTDLQRQRNDLGARMEELAAEHAAALQPVIAQARGEAAALVDELDEERRRVEAAHGELEDMKSKLAAVQEEIEAMGETKAVERANLVKVDPLPDKARRQSEAVAAILKSVQGQLESMNARYGEHDTQYKTAAEREQQLTEEHTKMLTALERGRVQVESKARHADDVRKDVELASIEADKILADQVELDLRVKNLALELKAESDHLNRRQREKELMLRQYRVADQQLKDARDMLPNLKFQVEQMHRDVNTLEARRRAQSRELSDVKRELDIQMAAFLHEEADGKEKVALFQLTYKEVAALEAELAALKREEAERDTILRDLGSQRDRVALAIAQKLSKVKDVQMTSRIKEVELAELKKIRKEVGRRIRDFEKLYDLVKNQRNKFVNLIQAASQSTTEMKDKLKVLQNELDILQNEVGIKDKLLQQQHTQHAANIAERDQLRVELGRLGMVFRDKQAVVDEQIAEVDKLNAIINGCEKEMLRLKKQYELVIEARNYTGIMLIDRNDELCVLYEKANILDEVIKSGQLELMRREDEARLLRLEVGELERSIGVTRRLVPSVPLLDNDVAALQKALFEARREAEALSLALENPSNQGRWRLLEGKIPDREELSAKIQALEERLNDKKEQLLEKELILEEITSLSDKLRVQAAEGRADTLELAQRVNEYQSKLRAVTRKIMATVSELSMYQASALKLGAEKEELEGAVSLASQRLEAGEPPTDDAEREWYRLERERHTVDAMAEERRAVAAALDARVAEVQSTAEPRPNAYIPEQLGIPKPYGSFAPFKPQEAGSTMRHIRKPSPKEVVI | not soluble |
| MTALETQLTEIVEKEQGQKIIPFLQKLTQEERESLIPCLSRLEEYYNKFVQLEERTYGTRATSGQHHIIDLAALVIFPLKEFRKHEWGINTAHLNEIAAWHIPTWLDSYFVEGEGKEFGGFYNMDYEILMDWIERGILTISPSPQTIAGYLVNYIHTTPVLEKRDITINEHIWYLFEYDCGQNWHANPAKGYPYYTFQHFTENGKLDRMRVLKESLLAINRNFNKNLCSWFAGMFTALSPSVEEQLTLQPEMLAALSSPHSRPINIILGLLKNLCSHPRFLTDDFLDQTTVLFASDVKAVHQNTLGVLSKLAKEKKEYRDTICCAAAQGLMSRDESTQNKIVKLIQTFGETESPTLKEALSAYAETMLTSTKKELAAYLKDNVSDALSTDKVLLTTLDEQASVASFDYEPMPPILREDNRIQEITSIEDLIFLASQILDSNELYHFDLFLNALVEWNEQLEAKHITQWTPVLQRAYKLLINGGSSRNGILDSMMATFLIDYAKLLIKRFPVEAKELSTLHEKMVQKDELQKGQWRYRNLQRITIRQKSNKRTEFPIHKQLLYRTLDLLESNENRLPMLSTPTHMPAFIDPIVLIKRLGQYQQANAEPDDIDMQIALSRMALNNYPSQDFPTVLQELKGEYQSLFSFLIGAKDAVPQAPFAHPSWWMTAGLIKSPETVYTEFKDFSYSKSSREFLTGNFSWWTFQTPHSYTDYHNKVVNWTSSTLSFNVPEGENIHIVNKGKYDERVSYHSYDPHPLLVEMYSQIERYDDIQNDLPRLVWLAPNTPEPLFVWCIRCAIYDPMLNEVREVGITQATIEALHQLRHEWHETSYLLEASCMLVADKTSRSYAAGIWTDRVNTGCIDSARIGRILGSHQRTGWGPLKRLTDLIQQQMINVSPLHNRELELLLTSLIAELPEQPVKELKKLLEIYSELLSVNNSRVTDERILQLLEIWKNTANLKKVIVSINR | not soluble |
| STQESTQCHRSYLLPSGNSVTLSESTAIVSHGTTGLVTWDAALYLAEWAIENPAAFTDRTILELGSGAGLTGLAICKACCPRAYIFSDCHAQVLEQLRGNVLLNGFSLEPHTPIDAGSSKVTVAQLDWDEVTASQLSAFQADVVIAADVLYCWEMTLSLVRVLKMLEDCQRKSAPDVYVAYTIRSQDTGKLFIEELDRAGIYWEEVPPHTGKLFPYEEHSAIVILKLVLTSRHGV | soluble |
| MSNIYDWSLKADENAHSDNIINWAEGQPPSSVNDSARAMMQRVREYLADNGGSLDSTFIVNAEDKTTSIIVTTASPIEEYKNDIIIRFKAGGVNVGTTTVIVNNIEEKLLYKATNAGVTPLEGGELQRDAIYEMVYNKDVSMEDHGGWYLLNPTPLPPPKIETFPSGFIATFAMQEVPSGWLLCDGAVYERKDYPQLFKAIGDKWGKDSDTTFKVPDFRGMFLRGFDDGRGLDAGRQFADQQHDSIRSHTHIGTIEEAGEHTHKFQYYGVGWDSGDIGRRNPFYYRQSSTGVTQSAGAHTHDISLSPTGEAETRPVNTTVVYAIKS | not soluble |
| MGHHHHHHSHMAEISDLDRQIEQLRRCELIKESEVKALCAKAREILVEESNVQRVDSPVTVCGDIHGQFYDLKELFRVGGDVPETNYLFMGDFVDRGFYSVETFLLLLALKVRYPDRITLIRGNHESRQITQVYGFYDECLRKYGSVTVWRYCTEIFDYLSLSAIIDGKIFCVHGGLSPSIQTLDQIRTIDRKQEVPHDGPMCDLLWSDPEDTTGWGVSPRGAGYLFGSDVVAQFNAANDIDMICRAHQLVMEGYKWHFNETVLTVWSAPNYCYRCGNVAAILELDEHLQKDFIIFEAAPQETRGIPSKKPVADYFL | not soluble |
| SNQEPATILLIDDHPMLRTGVKQLISMAPDITVVGEASNGEQGIELAESLDPDLILLDLNMPGMNGLETLDKLREKSLSGRIVVFSVSNHEEDVVTALKRGADGYLLKDMEPEDLLKALHQAAAGEMVLSEALTPVLAASLRANRATTERDVNQLTPRERDILKLIAQGLPNKMIARRLDITESTVKVHVKHMLKKMKLKSRVEAAVWVHQERIF | soluble |
| MFILKDVTYKDILHIPYLQIQKEKITCIIGESGSGKSTLLRMLNDLQSPTSGIIEYNGKLISDYPPIQLRRDVVMLGQTPPIFDGTIKDNLLMGLRLSEKPFPNDDILRSALKTISLEKNLEDNADSLSGGEKQRLAFARIVLMDPPVYLLDEPTSALDSDTERRVMKQFTTLAREKKKTVIFITHSQQLPEEIADDIIEISKANGATRKEVLSVEGRY | not soluble |
| GSPEFRWTKEEEETRQMYDMVVKIIDVLRSHNEACQENKDLQPYMPIPHVRDSLIQPHDRKKMKKVWDRAVDFLAANESRVRTETRRIGGADFLVWRWIQPSASCDKILVIPSKVWQGQAFHLDRRLERPHRD | soluble |
| MSKDTKQEDNAPTPVTTTPMALNPKTVEKTMFVNKEVLPKMKKIDPEEPGHLPLNEKFMKRWLIEGLIGKGGYGEIYLALDVVRGEEVAIKVEPKKRRGKLAKRMILEQHVLAKMQGKPHVPMIYGSGHAEKYNFIIMQILSINVGDIKKSSPNKKLSQCSVGRIIHQVIAALQDLHETGYVHRDVKPANMCFGIFPHSRHTLILLDFGLVRRYKMESGEWREPRLRAGFRGTTRYVSIRVHRRCEQSPYDDLVSVMYTAYELLAGELPWKHLEKSEEVVQLKEVMTENGINPELFQGDKSVLIDFFKQVSEMDPMKEPCYEKLIECIKVLYAPKVLTDPYEWEESSKGQDEVSEENTNSK | soluble |

Source: the DeepSol protein solubility set
